# Data taken from patent US20160264649A1.
# Assays:
# Assay in all cases: cell-based or functional assay
# [1] = target: HIV-1 LAVI_C3 Env on pseudovirus (HIV-1)
# [2] = target: HIV-1 MGRM-F1-017 Env (HIV-1)
# [3] = target: HIV-1 MGRM-D-018 Env (HIV-1)
# [4] = target: HIV-1 MGRM-C-013 Env on pseudovirus (HIV-1)
# [5] = target: HIV-1 MGRM-C-009 Env on pseudovirus (HIV-1)
# [6] = target: HIV-1 MGRM-C-004 Env on pseudovirus (HIV-1)
# [7] = target: HIV-1 MGRM-Chronic-B-017 Env on pseudovirus (HIV-1)
# [8] = target: HIV-1 MGRM-G-017 Env (HIV-1)
# [9] = target: HIV-1 92UG024 Env (HIV-1)
# [10] = target: HIV-1 LAVI_C22 Env on pseudovirus (HIV-1)
# [11] = target: HIV-1 MGRM-Chronic-B-002 Env on pseudovirus (HIV-1)
# [12] = target: HIV-1 MGRM-D-003 Env (HIV-1)
# [13] = target: HIV-1 IAVI-C18 Env (HIV-1)
# [14] = target: HIV-1 MGRM-AE-004 Env (HIV-1)
# [15] = target: HIV-1 93IN905 Env on pseudovirus (HIV-1)
# [16] = target: HIV-1 MGRM-Chronic-B-008 Env on pseudovirus (HIV-1)
# [17] = target: HIV-1 VLGCB3 Env on pseudovirus (HIV-1)
# [18] = target: HIV-1 MGRM-AG-006 Env (HIV-1)
# [19] = target: HIV-1 MGRM-D-014 Env (HIV-1)
# [20] = target: HIV-1 MGRM-C-007 Env on pseudovirus (HIV-1)
# [21] = target: HIV-1 SC422661.8 (Acute) Env on pseudovirus (HIV-1)
# [22] = target: HIV-1 93MW959 Env on pseudovirus (HIV-1)
# [23] = target: HIV-1 MGRM-Chronic-B-011 Env on pseudovirus (HIV-1)
# [24] = target: HIV-1 MGRM-C-025 Env on pseudovirus (HIV-1)
# [25] = target: HIV-1 MGRM-Chronic-B-018 Env on pseudovirus (HIV-1)
# [26] = target: HIV-1 94UG103 Env (HIV-1)
# [27] = target: HIV-1 MGRM-Chronic-B-023 Env on pseudovirus (HIV-1)
# aMLV envelope = target: aMLV envelope
# [28] = target: HIV-1 MGRM-C-010 Env on pseudovirus (HIV-1)
# [29] = target: HIV-1 MGRM-Chronic-B-003 Env on pseudovirus (HIV-1)
# [30] = target: HIV-1 MGRM-AE-008 Env (HIV-1)
# [31] = target: HIV-1 98CN006 Env on pseudovirus (HIV-1)
# [32] = target: HIV-1 MGRM-Chronic-B-024 Env on pseudovirus (HIV-1)
# [33] = target: HIV-1 APV_13 Env on pseudovirus (HIV-1)
# [34] = target: HIV-1 94UG114 Env (HIV-1)
# [35] = target: HIV-1 PVO.4 (Acute) Env on pseudovirus (HIV-1)
# [36] = target: HIV-1 MGRM-Chronic-B-012 Env on pseudovirus (HIV-1)
# [37] = target: HIV-1 MGRM-G-009 Env (HIV-1)
# [38] = target: HIV-1 MGRM-F1-023 Env (HIV-1)
# [39] = target: HIV-1 MGRM-AE-001 Env (HIV-1)
# [40] = target: HIV-1 MGRM-D-013 Env (HIV-1)
# HIV-1 APV-17 Env (HIV-1) = target: HIV-1 APV-17 Env (HIV-1)
# HIV-1 CMU02 Env (HIV-1) = target: HIV-1 CMU02 Env (HIV-1)
# [41] = target: HIV-1 MGRM-Chronic-B-004 Env on pseudovirus (HIV-1)
# [42] = target: HIV-1 MGRM-D-026 Env (HIV-1)
# [43] = target: HIV-1 MGRM-F1-022 Env (HIV-1)
# [44] = target: HIV-1 MGRM-A-002 Env (HIV-1)
# HIV-1 VLGCA1 Env (HIV-1) = target: HIV-1 VLGCA1 Env (HIV-1)
# [45] = target: HIV-1 MGRM-A-010 Env (HIV-1)
# [46] = target: HIV-1 92RW020 Env (HIV-1)
# [47] = target: HIV-1 93RW029 Env (HIV-1)
# Sequence of 1443_C16 (PG16) (TCN-116) (antibody) (VH): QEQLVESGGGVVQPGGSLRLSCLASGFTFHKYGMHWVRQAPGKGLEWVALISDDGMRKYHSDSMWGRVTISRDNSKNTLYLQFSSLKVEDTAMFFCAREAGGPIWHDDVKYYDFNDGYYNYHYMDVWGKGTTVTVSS
# Sequence of 1443_C16 (PG16) (TCN-116) (antibody) (VL): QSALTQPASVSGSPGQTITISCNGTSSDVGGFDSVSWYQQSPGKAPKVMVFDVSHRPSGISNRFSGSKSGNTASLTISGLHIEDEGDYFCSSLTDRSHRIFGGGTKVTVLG
substance,measurement,setting,value
4E10 (antibody),IC50,[1],2.85 µg/mL
same,IC50 (pseudovirus neutralization),[2],4.92 µg/mL
same,"IC50 (µg/ml), pseudovirus neutralization",[3],3.9 µg/mL
same,IC50,[4],2.1 µg/mL
same,IC50,[5],0.56 µg/mL
same,IC50,[6],24.2 µg/mL
same,IC50,[7],2.77 µg/mL
same,"IC50 (µg/ml), pseudovirus neutralization",[8],1.14 µg/mL
same,"IC50 (µg/ml), pseudovirus neutralization",[9],2.17 µg/mL
same,neutralization IC50,[9],1.32 µg/mL
same,neutralization IC90,[9],23.7 µg/mL
same,IC50,[10],2.02 µg/mL
same,IC50,[11],2.19 µg/mL
same,"IC50 (µg/ml), pseudovirus neutralization",[12],2.49 µg/mL
same,neutralization IC50,[13],> 50 µg/mL
same,neutralization IC90,[13],> 50 µg/mL
same,"IC50 (µg/ml), pseudovirus neutralization",[14],1.27 µg/mL
same,IC50,[15],1.26 µg/mL
same,IC50,[16],16.7 µg/mL
same,IC50,[17],5.76 µg/mL
same,"IC50 (µg/ml), pseudovirus neutralization",[18],1.76 µg/mL
same,"IC50 (µg/ml), pseudovirus neutralization",[19],3.24 µg/mL
same,IC50,[20],5.84 µg/mL
same,IC50,[21],6.35 µg/mL
same,IC50,[22],4.55 µg/mL
same,IC50,[23],1.07 µg/mL
same,IC50,[24],5.58 µg/mL
same,IC50,[25],23.2 µg/mL
same,neutralization IC50,[26],9.7 µg/mL
same,neutralization IC90,[26],> 50 µg/mL
same,IC50,[27],27.9 µg/mL
same,neutralization IC50,aMLV envelope,> 50 µg/mL
same,neutralization IC90,aMLV envelope,> 50 µg/mL
same,IC50,[28],11 µg/mL
same,IC50,[29],3.5 µg/mL
same,"IC50 (µg/ml), pseudovirus neutralization",[30],0.94 µg/mL
same,IC50,[31],1.91 µg/mL
same,IC50,[32],9.19 µg/mL
same,IC50,[33],7.33 µg/mL
same,"IC50 (µg/ml), pseudovirus neutralization",[34],9.72 µg/mL
same,IC50,[35],18.3 µg/mL
same,IC50,[36],48 µg/mL
same,"IC50 (µg/ml), pseudovirus neutralization",[37],1.34 µg/mL
same,IC50 (pseudovirus neutralization),[38],0.44 µg/mL
same,"IC50 (µg/ml), pseudovirus neutralization",[39],0.85 µg/mL
same,"IC50 (µg/ml), pseudovirus neutralization",[40],5.38 µg/mL
same,neutralization IC50,HIV-1 APV-17 Env (HIV-1),5.1 µg/mL
same,"IC50 (µg/ml), pseudovirus neutralization",HIV-1 CMU02 Env (HIV-1),0.72 µg/mL
same,neutralization IC50,HIV-1 CMU02 Env (HIV-1),0.59 µg/mL
same,neutralization IC90,HIV-1 CMU02 Env (HIV-1),13.4 µg/mL
same,IC50,[41],3.7 µg/mL
same,"IC50 (µg/ml), pseudovirus neutralization",[42],2.95 µg/mL
same,IC50 (pseudovirus neutralization),[43],1.01 µg/mL
same,neutralization IC50,[44],6.45 µg/mL
same,neutralization IC50,HIV-1 VLGCA1 Env (HIV-1),4.58 µg/mL
same,neutralization IC50,[45],14.4 µg/mL
same,neutralization IC50,[46],4.54 µg/mL
same,neutralization IC50,[47],15.5 µg/mL
1443_C16 (PG16) (TCN-116) (antibody),IC50,[1],9.55 µg/mL
same,IC50 (pseudovirus neutralization),[2],> 50 µg/mL
same,"IC50 (µg/ml), pseudovirus neutralization",[3],0.004 µg/mL
same,IC50,[4],> 50 µg/mL
same,IC50,[5],> 50 µg/mL
same,IC50,[6],5.09 µg/mL
same,IC50,[7],0.02 µg/mL
same,"IC50 (µg/ml), pseudovirus neutralization",[8],0.02 µg/mL
same,"IC50 (µg/ml), pseudovirus neutralization",[9],24 µg/mL
same,neutralization IC50,[9],> 50 µg/mL
same,neutralization IC90,[9],> 50 µg/mL
same,IC50,[10],0.02 µg/mL
same,IC50,[11],3.06 µg/mL
same,"IC50 (µg/ml), pseudovirus neutralization",[12],0.01 µg/mL
same,neutralization IC50,[13],0.0067 µg/mL
same,neutralization IC90,[13],0.207 µg/mL
same,"IC50 (µg/ml), pseudovirus neutralization",[14],0.002 µg/mL
same,IC50,[15],0.25 µg/mL
same,IC50,[16],0.73 µg/mL
same,IC50,[17],0.4 µg/mL
same,"IC50 (µg/ml), pseudovirus neutralization",[18],> 50 µg/mL
same,"IC50 (µg/ml), pseudovirus neutralization",[19],0.003 µg/mL
same,IC50,[20],0.05 µg/mL
same,IC50,[21],1.13 µg/mL
same,IC50,[22],0.007 µg/mL
same,IC50,[23],> 50 µg/mL
same,IC50,[24],0.04 µg/mL
same,IC50,[25],0.7 µg/mL
same,neutralization IC50,[26],0.008 µg/mL
same,neutralization IC90,[26],1.59 µg/mL
same,IC50,[27],0.13 µg/mL
same,neutralization IC50,aMLV envelope,> 50 µg/mL
same,neutralization IC90,aMLV envelope,> 50 µg/mL
same,IC50,[28],> 50 µg/mL
same,IC50,[29],0.19 µg/mL
same,"IC50 (µg/ml), pseudovirus neutralization",[30],3.25 µg/mL
same,IC50,[31],> 50 µg/mL
same,IC50,[32],0.01 µg/mL
same,IC50,[33],> 50 µg/mL
same,"IC50 (µg/ml), pseudovirus neutralization",[34],> 50 µg/mL
same,IC50,[35],5.43 µg/mL
same,IC50,[36],3.74 µg/mL
same,"IC50 (µg/ml), pseudovirus neutralization",[37],> 50 µg/mL
same,IC50 (pseudovirus neutralization),[38],> 50 µg/mL
same,"IC50 (µg/ml), pseudovirus neutralization",[39],4.33 µg/mL
same,"IC50 (µg/ml), pseudovirus neutralization",[40],0.11 µg/mL
same,neutralization IC50,HIV-1 APV-17 Env (HIV-1),> 50 µg/mL
same,neutralization IC90,HIV-1 APV-17 Env (HIV-1),> 50 µg/mL
same,"IC50 (µg/ml), pseudovirus neutralization",HIV-1 CMU02 Env (HIV-1),43.6 µg/mL
same,neutralization IC50,HIV-1 CMU02 Env (HIV-1),> 50 µg/mL
same,neutralization IC90,HIV-1 CMU02 Env (HIV-1),> 50 µg/mL
same,IC50,[41],0.01 µg/mL
same,"IC50 (µg/ml), pseudovirus neutralization",[42],> 50 µg/mL
same,IC50 (pseudovirus neutralization),[43],0.08 µg/mL
same,neutralization IC50,[44],0.004 µg/mL
same,neutralization IC50,HIV-1 VLGCA1 Env (HIV-1),0.18 µg/mL
same,neutralization IC50,[45],0.004 µg/mL
same,neutralization IC50,[46],0.28 µg/mL
same,neutralization IC50,[47],3.83 µg/mL
